These results are taken from a protein production outcome set (Wang et al. 2014).

This series can be described thus: label from the status in PepcDB records.
Turning to “MSASIRDAGVADLPGILAIYNDAVGNTTAIWNETPVDLANRQAWFDTRARQGYPILVASDAAGEVLGYASYGDWRPFEGFRGTVEHSVYVRDDQRGKGLGVQLLQALIERARAQGLHVMVAAIESGNAASIGLHRRLGFEISGQMPQVGQKFGRWLDLTFMQLNLDPTRSAP”, the protein production entry is on record as “not failed”.

“MKRSIAPLLVCPACLPKERPLELTATAEADGDITAGHLSCKGCRRRFPIRDGIAVLLPDPDTGPSGGQWKYEEQGTLATYLWSHFADLAGDPEAGDAYASWASALAGNAETSLDAGCAVGRLTFELGQRSGLAVGFDLSLTFIRAARQLARERQIRFSLPREGNLRDEFRLTLPDCWRTDEVEFVVADALAIPFARETFDRTASLNLIDRVSYPLAHLYEMNRVARLSGASFLLSDPFSWSTANAPEEKWLGGTESGPYSGRGMDNVKAILGGKEAIIAPPWTVAREGSVWWKIRSHRNHFELIRSEFLVAERLEHHHHHH”: the protein production entry was “failed”. As to “QLGGDMKTIAIADRTGEYEQLFKENDEFRFVHAEKTAEEYRKMGADKSGIDAVLEIRQDLLEDPNAVAIYGYKQLPASVSNHISRILSDYLSDKKIASYNIPDIKQILADSKIELSVHTYKWSEDGTNERTSGELASGIS”, the protein production result is “not failed”. As to “FKVPPFQDCILSFLGFSDEEKHSMEEMTEMQGGSYLPVGDERCTHLIVEENTVKDLPFEPSKKLFVVKQEWFWGSIQMDARAGETMYLYEKANTPE”, the protein production entry is “not failed”.

With “MTKRVTCSACDGFGAEGGETGMVSCNSCEGNGFILKNQRSIFGTVQSQMLCQSCGGQGKQALEHHHHHH”, the protein production result was “failed”.

Turning to “MFIHVGSDKVLVKFIVSKFIKDYSNISNKKVRENYGILSSIMGLIVNLILFVIELSIGIFINSIAVIADAFHNLADVSASVITLIGFKLSNKPADKEHPFGHGRVEYLSALLVSAIILLVGVEFIKTSFLRILSPEPVSFNLISFIIMLIAIPLKLWLSLFNKNIGKKINSSALKASGADALNDVYILSSVILSLLVSAFSTISIDGYVGVLIGALIIWSAVNLMKDTIDPLLGQAPDPNLVKSIKKMALKCDVILGVHDLIIHNYGPGRTMISFHAEVPYNIPIMTLHSKIDETEKRISEELDIFVVIHMDPLLIGSPEVSEAKRYVSKILKDFPSVQSFHDFRIVGDGEDKKLIFDIVVPFDVDISEKKLSKLGDDIKSEIIRRHPHYDCVITVDRDYSGI”, the protein production result is listed as “failed”. Consider “METKTVAITMGDPAGIGPEIIVKALSEDGLNGAPLVVIGCLATLKRLQAKGITPNVELRAIERVAEARFAPGIIHVIDEPLAQPEALEAGKVQAQAGDLAYRCVKRATELALRGDVQAIATAPLNKEALHLAGHNYPGHTELLATLTHSRDYAMVLYTDKLKVIHVSTHIALRKFLDTLSTARVETVIGIADTFLKRVGYVKPRIAVAGVNPHAGENGLFGDEETRILTPAITDARAKGMDVYGPCPPDTVFLQAYEGQYDMVVAMYHDQGHIPLKLLGFYDGVNITAGLPFIRTSADHGTAFDIAWTGKAKSESMAVSIKLAMQLA”, for which the protein production result was “not failed”. Take “MKPSQWTLRWVTLCGCGMLAASAAAVELPGTVQPSQLDERFKPRSEPQAKPEAPLVVPKQVAPQGSEQIRFKLREIRIEGNTRYDKAVLESYYQHMLGEQVSLAELVDLANRLTAKYRQDGFLLTQVVVPEQSIEGGKVRLQVIEGYLEHVQIKGTVDGPRVRVEELLAPLTEKRPLDADTLERGLLLVGDLPGVNVQSVLSPGQALGSSNLDVALQQQRYEGFVSLDNRGSHYTDPTTLAFGATEFSRLGFYEQIDVLGAISPFSDATRYIQLRGTLPLGGMFAGDTLQIMGSYSKVNPDIPDSVFPFDSVSKSTEGSISYNHPFIRSRSQNLSGGLALQWKDTETRLRDFASDASNPGRDHVRVFQQRLTYDWVDRWMGINLAEVRNNIGLDMWGATKKDDERRSREVADGRFVYLNGNIGRLQGLGGPWSVYGELQWQYSFDPLLPSERFGVGGSGIGRGFAPGNITGDRGFALKLEPRYGQAVGYSWLRSYQAYAFYDWGKTYNLDVDDDEQQKLGSIGAGVRFNLTDQLSFNPEIARQVIGEPADQRDGKRETRVLFNVVARF”: the protein production entry is listed as “failed”. With “MGSTHHHHHHSSGRENLYFQGHMEEEMQRHIKLTPSQTTPVVLVVGDPGRVDKVKMLCDSYVDLAYNREYKSVECTYKGQKFLCVSHGVGSAGCAICFEELMNNGAKVIIRAGSCGSLQPTQMKRGDICICNAAVREDRVSHLMIYSDFPAVADFEVYDTLNKVAQELEVPVFNGISLSSDLYYPHKIIPTRLEDYSKANVAVVEMEVATLMVMGTLRKVKTGGIFIVDGCPLKWDEGDFDNNLVPEKLENMIKISLETCARLAKKY”, the protein production entry was “not failed”. As for “MSLSLYDSAHSLDGKSGWDTPVFSMKDSMDRNPMVTEAWEALCQSQVYFRGKPVGTIAAYDHASEEVLNYDQVFVRDFVPSALAFLMNGEPEIVKNFLLKTLHIQGQDKMIDKFKLGDGAMPASFKVLHNPIKKTDTIIADFGESAIGRVAPVDSGFWWIILLRAYTKSTGDHSLAERPECQKGMRLILSLCLSEGFDTFPTLLCADGCSMVDRRMGIYGYPIEIQALFFMALRSALSMLKHDSEGKEFMEKIVKRLHALSFHMRSYFWLDFQQLNDIYRYKTEEYSHTAVNKFNVIPDSIPDWIFDFMPLRGGYFVGNVSPARMDFRWFALGNCIAILSSLATPEQSMAIMDLIEARWEELVGEMPLKICYPAMESHEWGIVTGCDPKNTRWSYHNGGSWPVLLWLLTAASIKTGRPQIARRAIELAEARLLKDGWPEYYDGKSGRFIGKQARKSQTWSIAGYLVAKMMMDDPTHVGMISMEEEKHMKPPLRRSSSWT”, the entry is “failed”. Then “KRIQYSVITILVLLIAVILIYMFSPLSKIAHVNINGNNHVSTSKINKVLGVKNDSRMYTFSKKNAINDLEEDPLIKSVEIHKQLPNTLNVDITENEIIALVKYKGKYLPLLENGKLLKGSNDVKINDAPVMDGFKGTKEDDMIKALSEMTPEVRRYIAEVTYAPSKNKQSRIELFTTDGLQVIGDISTISKKMKYYPQMSQSLSRDSSGKLKTRGYIDLSVGA”, with “failed”. Turning to “MEELSAAEPGPEPGPEPESAPESESEPGPAGAGDAPGDGVIVTRALTKRYRGGQLAVDGLDLTVPAGSVFGFLGPNGSGKTTTIRMLMGLIEPTSGTARVLGRPMPRSARTVLPHIGALIEGPALYGFLSGRDNLLRYDAADPTADPRTRRTRVAATLDRVGLTAAAGKKAKAYSLGMKQRLGLAAALLQPRRLLVLDEPTNGLDPQGMREIRSLVRELASDGTTVFLSSHLLDEIEQVCTHAAVMAQGRLITQGAVADLAAGARGRLVVTTPDVTDAARVLKEQGVADIVVAEDRVTGEPPDGELAELNAALVTAAVRVRGFGVERASLEDAFVALTGEGFDVAGLEHHHHHH”, the protein production result is “failed”. Consider “MQSVEDKTFCLQTLSANPLAASATGLLPLAEVVIRGIDLPYAKLLVKSADRAIEKIPALKEQFKECQDSFLRIVMSLKSAASELKVSPDTANYDAMICFDETKRVKEVIGKNEDVTSKSLIEMTLRMEKLIFLALGATEVVGG”, for which the protein production entry is “failed”. As for “CSACGETVMPGSRKLEYGGQTWHEHCFLCSGCEQPLGSRSFVPDKGAHYCVPCYENKFA”, the entry is “not failed”.

Regarding “MKVIICGAGQVGYGIAEQLSREDNEVSVIDTAAPLITAITETLDVRGYVGHGAHPDMLAKAGADQADMIIAVTLHDEINIVACEVAHALFSVPTKIARIRDQSYMKPEYADLFSRENMSIDVTISPEVEVGKMVLRRIAFPGATDVVRFAEDTIYMLAIECMEDCPVINTPLQQLSSLFPDLIATVVGVYRDGILKVAHSSEQLRVGDLAYVICQRQHARRTLSLFGHEEQEAQRIVIAGAGNIGHFVAHKIEEMQSKTRVKIIEADRDRAIAASEQLSHTIVMHGSALDQKILMQADIQDADLIVTLTNNDQTNILAAVIAKQLGCKSNLALLNSTSFHDVARSLGLDAYINPRAVTISRVLQHVRKGRIRSVYAVQRGSAEVIEAEALETSPLVGQSFRDIDMPDGVRIGAIYRDGVVIRPDGSTKIKAKDRVVLFASADAVRDVEQLFRVSIQYF”, the protein production entry was “failed”.
